Patent US7442375B2, “Compositions of beta-defensin inducing agents” (Case Western Reserve University, priority 2002, dated 2008)

How the values were obtained:
Assay type in all cases: cell-based
CCR5 [1] = molecular target: T1, CCR5 (Homo sapiens, UniProt P51681); test: Flow cytometric analysis of co-receptor surface expression on unstimulated PBMC; design: endogenous in cells; host or cells: unstimulated peripheral blood mononuclear cells (PBMC); settings: 30 μg/ml, 3 h, high salt medium without FBS
T1 sequence (P51681 whole entry): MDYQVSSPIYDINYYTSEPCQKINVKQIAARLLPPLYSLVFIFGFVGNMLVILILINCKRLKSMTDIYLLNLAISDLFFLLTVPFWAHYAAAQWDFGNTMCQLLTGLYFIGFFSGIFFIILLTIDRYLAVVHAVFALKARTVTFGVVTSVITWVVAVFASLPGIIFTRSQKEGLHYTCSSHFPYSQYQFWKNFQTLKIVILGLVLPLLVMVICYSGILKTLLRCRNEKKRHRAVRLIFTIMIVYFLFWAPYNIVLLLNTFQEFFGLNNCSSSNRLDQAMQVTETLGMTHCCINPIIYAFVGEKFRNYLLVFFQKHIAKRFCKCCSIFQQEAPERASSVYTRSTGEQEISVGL
Description: Unstimulated PBMC were treated for 3 hrs with hBD-1, -2, or -3 (30 μg/ml) in DMEM (high salt) in the absence of FBS. The CXCR4 natural ligand SDF-1AE (2 μg/ml) and the CCR5 antagonist PSC-RANTES (100 nM) were used as positive controls. CXCR4 and CCR5 surface expression was calculated using known ratios of QuantiBRITE-PE beads (Becton Dickenson) by flow cytometry. Results are the means of seven experiments±SD.
Unstimulated PBMC were treated with 30 μg/ml hBD-1, -2, or -3 in high salt medium (RPMI-1640) in the absence of FBS, 3 h. The CXCR4 natural ligand SDF-1α (R&D Systems, Minneapolis, Minn., USA) and the CCR5 antagonist PSC-RANTES were used as controls. Cells were incubated with peridinin chlorophyll protein-conjugated anti-human CD4 antibody, and either phycoerythrin (PE)-conjugated anti-human CXCR4 antibody, PE-conjugated anti-human CCR5 antibody, or PE-conjugated mouse immunoglobulin G2a (IgG2a), isotype standard (PharmMingen, San Diego, Calif., USA) [Salkowitz et al.]. Fluorescence intensity was reported as receptor density by quantitative flow cytometry (FACSCaliber; Becton Dickenson, San Jose, Calif., USA) [Iyer et al.]. Data were analyzed using CELLQuest software (Becton Dickenson).
Surface expression of CXCR4 was decreased by 51%±18% and 52%±20% (SD) respectively after incubation with 30 μg/ml of hBD-2 or hBD-3 (FIG. 5).

CXCR4 = CXCR4 (Homo sapiens, UniProt P61073); test: Confocal microscopy of co-receptor surface expression on CEM X4/R5 cells; design: endogenous in cells; settings: 20 μg/ml, 3 h
Chain of CXCR4 (P61073 whole entry): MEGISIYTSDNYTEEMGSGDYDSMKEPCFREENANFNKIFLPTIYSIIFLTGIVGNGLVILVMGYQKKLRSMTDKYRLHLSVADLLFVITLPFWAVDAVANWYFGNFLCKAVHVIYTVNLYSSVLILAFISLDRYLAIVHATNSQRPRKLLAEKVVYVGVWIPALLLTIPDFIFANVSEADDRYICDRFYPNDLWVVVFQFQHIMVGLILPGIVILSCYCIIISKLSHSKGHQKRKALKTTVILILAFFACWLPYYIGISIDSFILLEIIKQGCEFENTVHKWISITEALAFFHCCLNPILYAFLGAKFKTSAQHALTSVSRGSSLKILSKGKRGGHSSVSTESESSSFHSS
Description: (§1) CEM X4/R5 cells were grown in RPMI-1640 medium containing 5% FBS and 400 μg/ml G418. Cells were collected, washed twice with PBS, resuspended in RPMI with 0.5% FBS or supplemented with 20 μg/ml recombinant hBD-2 or -3, and incubated at 37° C., 5% CO2 for 3 h. A second aliquot of cells, after incubation with hBD, was treated with FACS/Perm (PharMingen) at room temperature for 10 min and then washed three times with PBS. A third aliquot of cells was fixed in 1% paraformaldehyde on ice for 30 min, washed three times with PBS, and then incubated with 20 μg/ml hBD-2 or -3. Cells were stained with PE-labeled CXCR4 or CCR5 (PharMingen), or with primary goat anti-hBD-2 antibodies (Cell Sciences, Norwood, Mass., USA), or with rabbit anti-hBD-3 antibodies (Orbingen, San Diego, Calif., USA) at room temperature for 90 min, followed by washing three times with PBS. Fluorescein isothiocyanate-labeled rabbit anti-goat IgG (Jackson ImmunoResearch, West Grove, Pa., USA) for detection of hBD-2, or goat anti-rabbit IgG (Sigma) for detection of hBD-3, were added, respectively, at room temperature and incubated for 90 min. […] All samples were observed using a dual scanning confocal microscope system (Zeiss LSM 510, Oberkochem, Germany) and analyzed with the Zeiss LSM 5 Image Browser. […]

CCR5 [2] = molecular target: T1, CCR5; test: as above; design: endogenous in cells; settings: 20 μg/ml, 3 h
Description: as §1

B1: hBD-3: Recombinant human β-defensin 3 produced using an hBD-3-His tag fusion construct cloned into pET-30c; exemplary sequence SEQ ID NO:15 (protein, listed as Homo sapiens)
chain: MRIHYLLFALLFLFLVPVPGHGGIINTLQKYYCRVRGGRCAVLSCLPKEEQIGKCSTRGRKCCRRKK
modifications: not fully specified (C-terminus); ends and bridges not checked
CCR5 [1]
  effect on CCR5 expression: not altered
CXCR4
  surface expression of CXCR4: dramatically decreased
CCR5 [2]
  surface expression of CCR5: not
